{
  "source": "paper doi:10.1101/2021.03.05.434000",
  "about": "(bioRxiv, 2021)",
  "data": [
    {"biological_target": "the molecule itself", "test": "crystal structure", "values": [
      {"protein": "GSQASS", "note": "[NCAP segment 179-GSQASS-184]", "binding result": "binds"},
      {"protein": "GQTVTK", "note": "[NCAP segment 243-GQTVTK-248]", "binding result": "binds"},
      {"protein": "AALALL", "note": "[NCAP segment 217-AALALL-222]", "binding result": "binds"}
    ]}
  ]
}
